Source: patent publication US20210210159A1, “COMPUTATIONAL PROTEIN DESIGN USING TERTIARY OR QUATERNARY STRUCTURAL MOTIFS” (Trustees of Dartmouth College, priority 2018, published 2021)

Test: Fast Protein Liquid Chromatography / size-exclusion chromatography, oligomeric state
Type: physicochemical
Settings: concentration of at least 10 μM
Source text: Based on the standards, the dimeric protein would be expected to elute at the volume indicated by a dotted line, which eliminates the possibility of design oligomerization.

## native mCherry: Red Fluorescent Protein mCherry (PDB code 2H5Q), design template (SEQ ID NO. 1) [reference compound]
  oligomeric state in solution: monomeric
